Assays:
[1] = test system: PEG-PPQ5 fluorogenic nanosensor (PPQ5 peptide on PEG-8 40 kDa scaffold)

| Substance | reversal of FRET-quenched fluorescent signal (cleavage) (ELA-Q) | reversal of FRET-quenched fluorescent signal (cleavage) (LAS-Q) | in vitro cleavage (fluorescent dequenching) [1] |
| --- | --- | --- | --- |
| recombinant mouse MMP13 | Both substrates resist cleavage by MMPI, MMP13, and thrombin | Both substrates resist cleavage by MMPI, MMP13, and thrombin | – |
| recombinant mouse thrombin | Both substrates resist cleavage by MMPI, MMP13, and thrombin | Both substrates resist cleavage by MMPI, MMP13, and thrombin | – |
| recombinant human MMP13 | – | – | PEG-PPQ5 pre- and post-aerosolization was equally sensitive to in vitro cleavage by recombinant MMP13 |
| recombinant mouse MMP1 | Both substrates resist cleavage by MMPI, MMP13, and thrombin | Both substrates resist cleavage by MMPI, MMP13, and thrombin | – |
